This is an account of results in the supplement of paper PMC9112550, “Optimization of the antimicrobial peptide Bac7 by deep mutational scanning” (BMC Biology, 2022).

In this series the test system is Escherichia coli TOP10. Put plainly: shrunken log2 fold change of peptide-encoding DNA abundance (4.5 h post-induction vs induction); higher = less antimicrobial activity (less host growth inhibition). The following applies: time post-induction: 4.5 h; library: site-saturation at positions 5, 18, 19, 20.
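Note: peptides expressed intracellularly from a pBAD plasmid library in pooled LB shake-flask culture, induced with 0.3% L-arabinose, DNA abundance read by NGS, three biological replicates, DESeq2 with apeglm shrinkage.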

Turning to RRIRPRPPRLPRPRPRPVHQPRP, the “shrunken log2 fold change” value was -0.00254. On to RRIRMRPPRLPRPRPRPCFRPRP, for which the “shrunken log2 fold change” value was determined as 0.123. To RRIRKRPPRLPRPRPRPSDGPRP belongs 0.178; to RRIRSRPPRLPRPRPRPQNHPRP, -0.604; to RRIRHRPPRLPRPRPRPCKCPRP, -0.174.

On to RRIRQRPPRLPRPRPRPFQKPRP, for which the “shrunken log2 fold change” value is -0.173. To RRIRHRPPRLPRPRPRPEMPPRP belongs -0.177; to RRIRTRPPRLPRPRPRPVHVPRP, 0.039.

In the case of RRIRSRPPRLPRPRPRPECNPRP, the “shrunken log2 fold change” value was 0.218. Consider RRIRQRPPRLPRPRPRPFMTPRP, for which the “shrunken log2 fold change” value was -0.00963.

Turning to RRIRNRPPRLPRPRPRPDHLPRP, the “shrunken log2 fold change” value is -0.0163. For RRIRQRPPRLPRPRPRPKSKPRP the value was -0.123; for RRIRVRPPRLPRPRPRPYYYPRP, -0.796; for RRIRERPPRLPRPRPRPMYCPRP, -0.064. In the case of RRIRNRPPRLPRPRPRPTNVPRP, the “shrunken log2 fold change” value was found to be 0.0366.

As to RRIRFRPPRLPRPRPRPKQFPRP, the “shrunken log2 fold change” value was 0.058. RRIRQRPPRLPRPRPRPCNWPRP: the “shrunken log2 fold change” value was determined as 0.0183. As to RRIRMRPPRLPRPRPRPENVPRP, the “shrunken log2 fold change” value is -0.0285. For RRIRIRPPRLPRPRPRPSTDPRP the value was -0.247. To RRIRDRPPRLPRPRPRPRRKPRP belongs 0.233; to RRIRHRPPRLPRPRPRPYYYPRP, -1.31. For RRIRHRPPRLPRPRPRPAWRPRP the value was 0.654. On to RRIRGRPPRLPRPRPRPVSQPRP, for which the “shrunken log2 fold change” value was found to be 0.795. On to RRIRWRPPRLPRPRPRPEPTPRP, for which the “shrunken log2 fold change” value was 0.857.

For the sequence RRIRRRPPRLPRPRPRPHNRPRP, the “shrunken log2 fold change” value was determined as 0.0584. For RRIRPRPPRLPRPRPRPLLCPRP the value was 0.127. For RRIRVRPPRLPRPRPRPVTTPRP the value was 0.126. As for RRIRHRPPRLPRPRPRPRQVPRP, the “shrunken log2 fold change” value was -0.108. For RRIRGRPPRLPRPRPRPTGIPRP the value was -0.0412; for RRIRNRPPRLPRPRPRPFMGPRP, -0.168; for RRIRARPPRLPRPRPRPHLSPRP, 0.0969. For RRIRWRPPRLPRPRPRPNSKPRP the value was -0.218; for RRIRHRPPRLPRPRPRPMNVPRP, -0.0594; for RRIRGRPPRLPRPRPRPNMCPRP, -0.0942. Take RRIRVRPPRLPRPRPRPQMSPRP: the “shrunken log2 fold change” value is -0.233. Take RRIRERPPRLPRPRPRPSDNPRP: the “shrunken log2 fold change” value was -1.25. To RRIRPRPPRLPRPRPRPSINPRP belongs -0.756; to RRIRRRPPRLPRPRPRPHPPPRP, 0.746; to RRIRKRPPRLPRPRPRPNLPPRP, 0.118. With RRIRERPPRLPRPRPRPAVTPRP, the “shrunken log2 fold change” value was -0.13.

In the case of RRIRLRPPRLPRPRPRPYDKPRP, the “shrunken log2 fold change” value was -0.951. To RRIRKRPPRLPRPRPRPFRPPRP belongs -0.0332; to RRIRQRPPRLPRPRPRPRRPPRP, 0.472; to RRIRSRPPRLPRPRPRPAKCPRP, 0.0862. To RRIRARPPRLPRPRPRPVSAPRP belongs 0.455; to RRIRSRPPRLPRPRPRPGVEPRP, 0.463. To RRIRMRPPRLPRPRPRPMHVPRP belongs -0.207. As for RRIRARPPRLPRPRPRPQRPPRP, the “shrunken log2 fold change” value is 0.517. To RRIRARPPRLPRPRPRPCNSPRP belongs -0.0983.

RRIRERPPRLPRPRPRPMHKPRP: the “shrunken log2 fold change” value worked out at 0.0621.

Take RRIRWRPPRLPRPRPRPVGGPRP: the “shrunken log2 fold change” value worked out at 0.494. To RRIRFRPPRLPRPRPRPTHNPRP belongs -0.18; to RRIRRRPPRLPRPRPRPHGNPRP, 0.166. For RRIRGRPPRLPRPRPRPAIVPRP, the “shrunken log2 fold change” value is 0.0899.

As to RRIRPRPPRLPRPRPRPNAEPRP, the “shrunken log2 fold change” value was determined as 0.154. For RRIRVRPPRLPRPRPRPCHDPRP the value was -0.122; for RRIRERPPRLPRPRPRPAIYPRP, -0.051; for RRIRSRPPRLPRPRPRPSEEPRP, -0.243. To RRIRDRPPRLPRPRPRPTRMPRP belongs 0.154. RRIRWRPPRLPRPRPRPFGNPRP: the “shrunken log2 fold change” value is -0.0165. For RRIRIRPPRLPRPRPRPLEYPRP the value was -0.293. To RRIRWRPPRLPRPRPRPMDEPRP belongs 0.0255; to RRIRHRPPRLPRPRPRPAWDPRP, -0.0216; to RRIRKRPPRLPRPRPRPHPCPRP, -0.22. For RRIRQRPPRLPRPRPRPERHPRP the value was 0.181. As for RRIRTRPPRLPRPRPRPPENPRP, the “shrunken log2 fold change” value turned out to be 0.201. For RRIRERPPRLPRPRPRPPCYPRP the value was -0.396; for RRIRHRPPRLPRPRPRPLCTPRP, -0.247; for RRIRWRPPRLPRPRPRPASSPRP, -0.0381.

Turning to RRIRDRPPRLPRPRPRPCVAPRP, the “shrunken log2 fold change” value was found to be 0.633. To RRIRDRPPRLPRPRPRPQMIPRP belongs -0.197; to RRIRPRPPRLPRPRPRPNCVPRP, -0.0731. To RRIRDRPPRLPRPRPRPGRKPRP belongs 0.0333. On to RRIRPRPPRLPRPRPRPCFPPRP, for which the “shrunken log2 fold change” value was -0.0413. For the sequence RRIRARPPRLPRPRPRPPDEPRP, the “shrunken log2 fold change” value is 0.338.

With RRIRGRPPRLPRPRPRPCIEPRP, the “shrunken log2 fold change” value amounted to 0.0449. To RRIRSRPPRLPRPRPRPCDPPRP belongs 0.0442. In the case of RRIRGRPPRLPRPRPRPYEYPRP, the “shrunken log2 fold change” value stood at 0.127. For RRIRTRPPRLPRPRPRPETCPRP the value was -0.0408. To RRIRARPPRLPRPRPRPKYKPRP belongs -0.31. For RRIRWRPPRLPRPRPRPRTWPRP the value was 0.292; for RRIRPRPPRLPRPRPRPMQTPRP, 0.119; for RRIRCRPPRLPRPRPRPLRTPRP, 1.01.

On to RRIRIRPPRLPRPRPRPVSLPRP, for which the “shrunken log2 fold change” value is -0.147. To RRIRARPPRLPRPRPRPHRHPRP belongs -0.0481. With RRIRTRPPRLPRPRPRPLLVPRP, the “shrunken log2 fold change” value was -0.119.

Consider RRIRWRPPRLPRPRPRPEYGPRP, for which the “shrunken log2 fold change” value came to 0.222. To RRIRTRPPRLPRPRPRPVKPPRP belongs 0.00237. To RRIRYRPPRLPRPRPRPAIYPRP belongs -0.121. RRIRSRPPRLPRPRPRPNAPPRP: the “shrunken log2 fold change” value was determined as 0.0774. For RRIRPRPPRLPRPRPRPYAHPRP the value was -0.0338. To RRIRGRPPRLPRPRPRPQWEPRP belongs 0.0931; to RRIRWRPPRLPRPRPRPRNIPRP, 0.00817. Regarding RRIRCRPPRLPRPRPRPQCPPRP, the “shrunken log2 fold change” value is -0.399. For the sequence RRIRLRPPRLPRPRPRPYRHPRP, the “shrunken log2 fold change” value was -0.628. In the case of RRIRTRPPRLPRPRPRPKHCPRP, the “shrunken log2 fold change” value is -0.0769.

Turning to RRIRNRPPRLPRPRPRPERYPRP, the “shrunken log2 fold change” value is 0.0573. For RRIRARPPRLPRPRPRPMSGPRP, the “shrunken log2 fold change” value came out at 0.0632. For RRIRQRPPRLPRPRPRPLHCPRP the value was -0.183; for RRIRYRPPRLPRPRPRPCYLPRP, -0.0778. For RRIRTRPPRLPRPRPRPFGIPRP the value was -0.338; for RRIRDRPPRLPRPRPRPSDMPRP, -0.307; for RRIRVRPPRLPRPRPRPQNLPRP, -0.672. For RRIRHRPPRLPRPRPRPACWPRP the value was 0.375. For RRIRDRPPRLPRPRPRPLSWPRP, the “shrunken log2 fold change” value amounted to 0.488. Consider RRIRIRPPRLPRPRPRPNLYPRP, for which the “shrunken log2 fold change” value is -0.565. For RRIRHRPPRLPRPRPRPWFAPRP the value was -0.217; for RRIRKRPPRLPRPRPRPGLMPRP, 0.343; for RRIRRRPPRLPRPRPRPDCSPRP, -0.27. For RRIRGRPPRLPRPRPRPMQCPRP, the “shrunken log2 fold change” value is -0.0159. Take RRIRSRPPRLPRPRPRPCSAPRP: the “shrunken log2 fold change” value is -0.0813. To RRIRGRPPRLPRPRPRPKRAPRP belongs 1.11.

Take RRIRVRPPRLPRPRPRPASHPRP: the “shrunken log2 fold change” value is 0.0857. Turning to RRIRERPPRLPRPRPRPNIKPRP, the “shrunken log2 fold change” value was -0.788.

With RRIRPRPPRLPRPRPRPKKLPRP, the “shrunken log2 fold change” value is -0.0688. To RRIRPRPPRLPRPRPRPLALPRP belongs 0.193; to RRIRARPPRLPRPRPRPYEHPRP, -0.25; to RRIRDRPPRLPRPRPRPKPSPRP, 0.503. To RRIRSRPPRLPRPRPRPEHDPRP belongs -0.128; to RRIRERPPRLPRPRPRPYRWPRP, -0.0887. To RRIRPRPPRLPRPRPRPVTHPRP belongs -0.227; to RRIRRRPPRLPRPRPRPCWEPRP, 0.109.

Turning to RRIRCRPPRLPRPRPRPGITPRP, the “shrunken log2 fold change” value was -0.232. For RRIRMRPPRLPRPRPRPDECPRP the value was 2.8. Regarding RRIRLRPPRLPRPRPRPEDHPRP, the “shrunken log2 fold change” value was -0.0495.
